According to publication PMC4150794, “Homodimerization of RBPMS2 through a new RRM-interaction motif is necessary to control smooth muscle plasticity” (Nucleic Acids Research, 2014):

Biological target: the molecule itself
Assay: SEC-MALS; Superdex 75 10/300, 20 mM Tris-HCl pH 8, 300 mM NaCl; loaded at 2 mg/ml (RBPMS2-Nter) or 4 mg/ml (RBPMS2-Nter-L49E); monomer to dimer

B1: RBPMS2-Nter (human RBPMS2 residues 27-117, RRM domain) (domain or fragment)
chain: not shown
notes: 15N- or 15N/13C-labelled for NMR; also called pET22-RBPMS2-Nter; RRM domain of RBPMS2; source: E. coli BL231DE3 (so in the source), purified (His Trap FF)
stoichiometry N: 2
